# From article PMC12422955
# Molecular target: recombinant full-length NOE1–mScarlet-His (rat) (UniProt Q62609)
# Assay: SEC; FSEC, Superose 6 calibrated with mass markers; 5 nM full-length NOE1–mScarlet with 5–150 nM GluA4, or 1 nM with 1–100 nM CP-AMPARs; mScarlet fluorescence
# Sequence of recombinant full-length NOE1–mScarlet-His (rat) (Q62609 25-485): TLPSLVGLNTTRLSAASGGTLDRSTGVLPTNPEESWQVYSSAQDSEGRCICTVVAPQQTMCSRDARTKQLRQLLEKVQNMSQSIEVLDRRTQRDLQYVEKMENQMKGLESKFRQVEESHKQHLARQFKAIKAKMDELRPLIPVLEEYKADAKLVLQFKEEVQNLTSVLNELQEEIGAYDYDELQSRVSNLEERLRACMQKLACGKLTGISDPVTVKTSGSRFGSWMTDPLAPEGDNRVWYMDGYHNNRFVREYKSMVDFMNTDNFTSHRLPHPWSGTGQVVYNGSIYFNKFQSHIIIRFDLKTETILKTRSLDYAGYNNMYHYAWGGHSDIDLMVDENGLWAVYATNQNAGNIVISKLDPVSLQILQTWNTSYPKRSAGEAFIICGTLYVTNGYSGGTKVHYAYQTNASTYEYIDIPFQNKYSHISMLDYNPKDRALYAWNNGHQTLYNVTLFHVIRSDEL
substance,measurement,value
native GluA1-containing CP-AMPARs purified from rat cerebellum (from UniProt P19490 19-907; P19493 21-902) (complex),stoichiometry N (receptors per NOE1 tetramer),2
